Test results reported in paper PMC2114114.

Target: Rat secretory component (rat (endogenous in rat liver)) (UniProt P15083)
Experiment: co-IP

Sequence of UniProt P15083 (P15083 19-611): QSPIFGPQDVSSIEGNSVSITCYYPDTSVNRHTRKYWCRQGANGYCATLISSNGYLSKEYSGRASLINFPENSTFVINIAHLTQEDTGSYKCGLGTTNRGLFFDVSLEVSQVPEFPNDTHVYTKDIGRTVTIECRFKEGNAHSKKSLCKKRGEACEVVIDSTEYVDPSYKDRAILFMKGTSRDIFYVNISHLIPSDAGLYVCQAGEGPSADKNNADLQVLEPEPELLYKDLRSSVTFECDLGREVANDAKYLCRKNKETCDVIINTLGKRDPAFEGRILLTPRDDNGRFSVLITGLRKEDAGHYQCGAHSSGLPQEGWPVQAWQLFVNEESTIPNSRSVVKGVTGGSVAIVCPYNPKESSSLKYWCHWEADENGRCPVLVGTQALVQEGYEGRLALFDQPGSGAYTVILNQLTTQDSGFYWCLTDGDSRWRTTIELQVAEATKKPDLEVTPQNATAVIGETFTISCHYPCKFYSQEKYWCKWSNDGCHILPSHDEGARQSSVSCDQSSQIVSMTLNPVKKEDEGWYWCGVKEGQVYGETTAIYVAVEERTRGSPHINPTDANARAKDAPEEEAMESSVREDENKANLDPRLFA

percent bound to anti-rat SC immunoadsorbent: 92.4%
Substance: Human monoclonal polymeric IgA (IgA1 myeloma protein) (from UniProt P01591 23-159) (antibody)
